3 molecules from patent US20110280881A1, “NOVEL ANTI-HSP90 MONOCLONAL ANTIBODY” (RIKEN, priority 2010, published 2011) can be followed below.

This test concerns DC2.4 cells and mouse GM-CSF-dependent BMDC. Description: Influence of cytokines on expression of cell surface HSP90 (FACS with 6H8). The test is classed as cell-based. To be noted: BMDC, cytokines 100 ng/ml or 10 ng/ml. The method, then:
In view of the possibility that cytokines are variation factors for the expression of cell surface HSP90, the influences of various cytokines on the expression of cell surface HSP90 were examined as described below.
The solid bars indicate the MFI for BMDC incubated in the presence of high concentrations of IFNs (as in FIG. 5B) or other cytokines (100 ng/ml); the grey bars indicate the MFI for BMDC incubated in the presence of low concentrations of IFNs (as in FIG. 5B) or other cytokines (10 ng/ml). The open bars indicate the MFI for BMDC incubated in the absence of the cytokines as negative controls.

B1: IL-23: cytokine (protein, UniProt Q9NPF7 20-189; P29460 23-328, looked up)
Interleukin-23 subunit alpha: RAVPGGSSPAWTQCQQLSQKLCTLAWSAHPLVGHMDLREEGDEETTNDVPHIQCGDGCDPQGLRDNSQFCLQRIHQGLIFYEKLLGSDIFTGEPSLLPDSPVGQLHASLLGLSQLLQPEGHHWETQQIPSLSPSQPWQRLLLRFKILRSLQAFVAVAARVFAHGAATLSP
Interleukin-12 subunit beta: IWELKKDVYVVELDWYPDAPGEMVVLTCDTPEEDGITWTLDQSSEVLGSGKTLTIQVKEFGDAGQYTCHKGGEVLSHSLLLLHKKEDGIWSTDILKDQKEPKNKTFLRCEAKNYSGRFTCWWLTTISTDLTFSVKSSRGSSDPQGVTCGAATLSAERVRGDNKEYEYSVECQEDSACPAAEESLPIEVMVDAVHKLKYENYTSSFFIRDIIKPDPPKNLQLKPLKNSRQVEVSWEYPDTWSTPHSYFSLTFCVQVQGKSKREKKDRVFTDKTSATVICRKNASISVRAQDRYYSSSWSEWASVPCS
Turning to B1, the “MFI of cell surface HSP90 after cytokine treatment versus negative control” value is “no significant difference from the negative control”.

B2: IL-10: cytokine (protein, UniProt P22301 19-178, looked up)
Interleukin-10: SPGQGTQSENSCTHFPGNLPNMLRDLRDAFSRVKTFFQMKDQLDNLLLKESLLEDFKGYLGCQALSEMIQFYLEEVMPQAENQDPDIKAHVNSLGENLKTLRLRLRRCHRFLPCENKSKAVEQVKNAFNKLQEKGIYKAMSEFDIFINYIEAYMTMKIRN
B2: the “MFI of cell surface HSP90 after cytokine treatment versus negative control” value is given as “no significant difference from the negative control”.

B3: IL-4: cytokine (protein, UniProt P05112 25-153, looked up)
Interleukin-4: HKCDITLQEIIKTLNSLTEQKTLCTELTVTDIFAASKNTTEKETFCRAATVLRQFYSHHEKDTRCLGATAQQFHRHKQLIRFLKRLDRNLWGLAGLNSCPVKEANQSTLENFLERLKTIMREKYSKCSS
Take B3: the “MFI of cell surface HSP90 after cytokine treatment versus negative control” value is “no significant difference from the negative control”.
